From publication PMC7283332 (2020)
Numbering of substitutions follows the chain as printed. Names and notes keep the numbering of the source.

T1: Fc-wtNKG2D (human, UniProt P26718 78-216)
T1 chain: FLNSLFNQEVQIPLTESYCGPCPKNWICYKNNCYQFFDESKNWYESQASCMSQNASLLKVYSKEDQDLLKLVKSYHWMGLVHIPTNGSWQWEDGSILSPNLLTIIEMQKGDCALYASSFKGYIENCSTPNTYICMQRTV

B1: ULBP2.R81W, monomeric α1α2 domain (domain or fragment)
chain: DPHSLCYDITVIPKFRPGPRWCAVQGQVDEKTFLHYDCGNKTVTPVSPLGKKLNVTTAWKAQNPVLREVVDILTEQLWDIQLENYTPKEPLTLQARMSCEQKAEGHSSGSWQFSFDGQIFLLFDSEKRMWTTVHPGARKMKEKWENDKVVAMSFHYFSMGDCIGWLEDFLMGMDSTLEPSAGAP
B2: Fc-iNKG2D.YA (Fc fusion)
chain: T1 chain with Y75A
modifications: biotinylated only in the ELISA on coated ligand-Fc proteins
B3: ULBP2 α1α2 domain, C-terminal 6×-His (domain or fragment)
chain: B1 chain with W78R

Experiments:
Assay in all cases: BLI
Fc-wtNKG2D = target: T1, Fc-wtNKG2D
Fc-iNKG2D.YA = target: B2
[1] = target: ULBP2.S3 (U2S3), monomeric α1α2 domain variant (human, UniProt Q9BZM5)

## B1
Fc-wtNKG2D
  Kd: 8 nM
Fc-iNKG2D.YA
  Kd: 3600 nM

## B2
[1]
  Kd: 28 nM

## B3
Fc-wtNKG2D
  Kd: 350 nM
